T1: Mcm10 (Saccharomyces cerevisiae, UniProt P32354 1-571)
T1 sequence: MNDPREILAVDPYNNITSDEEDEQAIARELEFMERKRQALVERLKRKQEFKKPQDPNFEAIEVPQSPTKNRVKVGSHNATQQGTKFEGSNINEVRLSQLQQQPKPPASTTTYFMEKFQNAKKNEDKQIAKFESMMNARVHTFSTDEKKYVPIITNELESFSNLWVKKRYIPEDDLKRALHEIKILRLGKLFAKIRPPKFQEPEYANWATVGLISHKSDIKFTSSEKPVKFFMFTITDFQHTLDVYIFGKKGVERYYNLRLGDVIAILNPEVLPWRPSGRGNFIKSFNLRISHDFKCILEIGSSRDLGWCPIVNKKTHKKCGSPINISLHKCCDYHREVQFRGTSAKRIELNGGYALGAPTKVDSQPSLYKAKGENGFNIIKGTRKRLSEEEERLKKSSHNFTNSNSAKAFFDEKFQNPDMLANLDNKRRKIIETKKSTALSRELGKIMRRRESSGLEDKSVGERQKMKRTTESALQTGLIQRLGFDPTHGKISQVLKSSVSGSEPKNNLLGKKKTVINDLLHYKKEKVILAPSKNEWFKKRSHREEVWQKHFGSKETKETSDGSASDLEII

B1: 5' flap lagging strand oligo (ssDNA)
DNA: TTTTTTTTTTTTTTTTTTTTTTTTTTTTTTTTTTTTTTTTTTTTTTTTTGACGCTGCCGAATTCTGGCTTGCTAGGACATTACAGGATCGTTCGGTCTC
modifications: last 5 linkages at 3' end thiodiester (phosphorothioate)
B2: 3' FITC 60mer ssDNA (ssDNA)
DNA: TTTTTTTTTTTTTTTTTTTTTTTTTTTTTTGGTGAGGGTTGGGAAGTGGAAGGATGGGCT

What was measured:
[1] = biological target: RPA (Saccharomyces cerevisiae, UniProt P22336;P26754;P26755 1-621;1-273;1-122); experiment: EMSA
Chain of RPA (P22336 whole entry, chain 1 of 3): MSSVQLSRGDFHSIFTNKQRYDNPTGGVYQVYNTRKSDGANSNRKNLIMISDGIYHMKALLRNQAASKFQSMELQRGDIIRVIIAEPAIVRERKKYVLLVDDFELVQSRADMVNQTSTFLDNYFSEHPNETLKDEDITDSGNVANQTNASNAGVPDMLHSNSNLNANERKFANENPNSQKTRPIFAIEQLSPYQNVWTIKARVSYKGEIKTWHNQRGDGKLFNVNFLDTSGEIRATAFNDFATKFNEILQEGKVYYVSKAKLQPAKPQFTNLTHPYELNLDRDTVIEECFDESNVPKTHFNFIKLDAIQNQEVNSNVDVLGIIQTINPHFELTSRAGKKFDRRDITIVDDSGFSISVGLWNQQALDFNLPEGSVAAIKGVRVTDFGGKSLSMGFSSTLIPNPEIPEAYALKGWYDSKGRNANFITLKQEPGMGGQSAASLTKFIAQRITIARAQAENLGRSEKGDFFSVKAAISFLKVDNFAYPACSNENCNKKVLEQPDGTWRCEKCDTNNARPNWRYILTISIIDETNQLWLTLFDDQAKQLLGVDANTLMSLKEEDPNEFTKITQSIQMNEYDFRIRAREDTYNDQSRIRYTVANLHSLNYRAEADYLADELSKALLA
Chain of RPA (P26754 whole entry, chain 2 of 3): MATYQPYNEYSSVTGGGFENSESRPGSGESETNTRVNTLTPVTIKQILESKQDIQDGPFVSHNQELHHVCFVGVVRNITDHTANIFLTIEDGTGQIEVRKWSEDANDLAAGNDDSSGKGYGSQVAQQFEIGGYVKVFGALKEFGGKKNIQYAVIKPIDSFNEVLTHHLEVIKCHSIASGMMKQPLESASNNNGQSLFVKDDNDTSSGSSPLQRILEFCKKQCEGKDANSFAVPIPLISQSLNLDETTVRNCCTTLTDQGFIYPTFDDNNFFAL
Chain of RPA (P26755 whole entry, chain 3 of 3): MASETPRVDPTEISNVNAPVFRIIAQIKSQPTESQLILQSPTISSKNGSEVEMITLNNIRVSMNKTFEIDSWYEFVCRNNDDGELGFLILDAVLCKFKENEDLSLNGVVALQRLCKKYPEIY

[2] = biological target: T1, Mcm10; experiment: fluorescence anisotropy

| Binder | binding result [1] | Kd [2] [nM] |
| --- | --- | --- |
| B1 | binds | – |
| B2 | – | 50 |
